Source: article PMC3677566 (Biochemistry, 2011)

B1: IR1-M_ΔSIM domain of RanBP2 (domain or fragment, UniProt P49792 2637-2710, looked up)
chain: ELTPTAEQKALATKLKLPPTFFCYKNRPDYVSEEEEDDEDFETAVKKLNGKLYLDGSEKCRPLEENTADNEKEC
B2: IR1-M domain (internal repeat 1 and M) of RanBP2 (domain or fragment, UniProt P49792 2629-2710, looked up)
chain: DDDVLIVYELTPTAEQKALATKLKLPPTFFCYKNRPDYVSEEEEDDEDFETAVKKLNGKLYLDGSEKCRPLEENTADNEKEC

Target: Ubc9 (human, UniProt P63279 1-158)
Test: pull-down

Ubc9, sequence (P63279 whole entry): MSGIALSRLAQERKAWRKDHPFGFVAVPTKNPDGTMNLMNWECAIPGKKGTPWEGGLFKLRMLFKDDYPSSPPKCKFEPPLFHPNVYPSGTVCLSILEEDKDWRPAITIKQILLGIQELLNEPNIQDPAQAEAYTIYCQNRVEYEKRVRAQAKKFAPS

Row | Binder | binding result
1 | B1 | binds
2 | B2 | binds
